From US20240132578A1

Tests used:
Assay in all cases: cell-based or functional assay
[1] = biological target: HIV-1 JR-CSF Env G324A (HIV-1 isolate JR-CSF) (UniProt P20871)
[2] = biological target: HIV-1 JR-CSF Env T297A (HIV-1 (isolate JR-CSF, clade B)) (UniProt P20871)
[3] = biological target: HIV-1 Env of isolate 6535.3 (subtype B), on pseudovirus (HIV-1)
[4] = biological target: HIV-1 Env of isolate 92UG046 (subtype D) (HIV-1)
[5] = biological target: HIV-1 Env of isolate 92UG114 (subtype D) (HIV-1)
[6] = biological target: HIV-1 Env of isolate 94KE105 (pseudovirus) (HIV-1)
[7] = biological target: HIV-1 Env of isolate APV_17 (subtype B), on pseudovirus (HIV-1)
[8] = biological target: HIV-1 Env of isolate APV_6 (subtype B), on pseudovirus (HIV-1)
[9] = biological target: HIV-1 Env of isolate CAAN.A2 (subtype B), on pseudovirus (HIV-1)
[10] = biological target: HIV-1 Env of isolate MG RM-C-023 (HIV-1)
[11] = biological target: HIV-1 Env of isolate MG RM-D-003 (subtype D) (HIV-1)
[12] = biological target: HIV-1 Env of isolate MG RM-D-004 (subtype D) (HIV-1)
[13] = biological target: HIV-1 Env of isolate MG RM-D-005 (subtype D) (HIV-1)
[14] = biological target: HIV-1 Env of isolate MG RM-D-012 (subtype D) (HIV-1)
[15] = biological target: HIV-1 Env of isolate MG RM-D-013 (subtype D) (HIV-1)
[16] = biological target: HIV-1 Env of isolate MG RM-D-014 (subtype D) (HIV-1)
[17] = biological target: HIV-1 Env of isolate MG RM-D-024 (subtype D) (HIV-1)
[18] = biological target: HIV-1 Env of isolate MG RM-D-026 (subtype D) (HIV-1)
[19] = biological target: HIV-1 Env of isolate MGRM-A-011 (pseudovirus) (HIV-1)
[20] = biological target: HIV-1 Env of isolate MGRM-A-014 (pseudovirus) (HIV-1)
[21] = biological target: HIV-1 Env of isolate MGRM-C-027 (clade C pseudovirus) (HIV-1)
[22] = biological target: HIV-1 Env of isolate MGRM-C-028 (clade C pseudovirus) (HIV-1)
[23] = biological target: HIV-1 Env of isolate MGRM-Chronic-B-004 (subtype B), on pseudovirus (HIV-1)
[24] = biological target: HIV-1 Env of isolate MGRM-Chronic-B-017 (subtype B), on pseudovirus (HIV-1)
[25] = biological target: HIV-1 Env of isolate MGRM-Chronic-B-018 (subtype B), on pseudovirus (HIV-1)
[26] = biological target: HIV-1 Env of isolate MGRM-F1-004 (subtype F) (HIV-1)
[27] = biological target: HIV-1 Env of isolate MGRM-F1-006 (subtype F) (HIV-1)
[28] = biological target: HIV-1 Env of isolate MGRM-F1-010 (subtype F) (HIV-1)
[29] = biological target: HIV-1 Env of isolate MGRM-F1-012 (subtype F) (HIV-1)
[30] = biological target: HIV-1 Env of isolate MGRM-F1-013 (subtype F) (HIV-1)
[31] = biological target: HIV-1 envelope glycoprotein (Env) of isolate 92UG031 (HIV-1)
[32] = biological target: HIV-1 envelope glycoprotein (Env) of isolate 92WR020 (HIV-1)
[33] = biological target: HIV-1 envelope glycoprotein (Env) of isolate 92WR026 (HIV-1)
[34] = biological target: HIV-1 envelope glycoprotein (Env) of isolate MG RM-A-003 (HIV-1)
[35] = biological target: HIV-1 envelope glycoprotein (Env) of isolate MG RM-A-005 (HIV-1)
[36] = biological target: HIV-1 envelope glycoprotein (Env) of isolate MG RM-A-007 (HIV-1)
[37] = biological target: HIV-1 JR-CSF Env I326A (HIV-1 isolate JR-CSF) (UniProt P20871)
[38] = biological target: HIV-1 92BR020 envelope protein (Env) on pseudotyped virus (HIV-1 strain 92BR020)
[39] = biological target: HIV-1 SF162 envelope protein (Env) on pseudotyped virus (HIV-1 isolate SF162) (UniProt P19550)
[40] = biological target: HIV-1 Env of isolate IAVI-C3 (Clade C) (HIV-1)
[41] = biological target: HIV-1 envelope glycoprotein (Env) of isolate 93UG077 (HIV-1)
[42] = biological target: HIV-1 JR-CSF Env N276A (HIV-1 (isolate JR-CSF)) (UniProt P20871)
[43] = biological target: HIV-1 JR-CSF Env S387A (HIV-1 isolate JR-CSF) (UniProt P20871)

1443_C16 (PG16) (TCN-116) (antibody), sequence (VH): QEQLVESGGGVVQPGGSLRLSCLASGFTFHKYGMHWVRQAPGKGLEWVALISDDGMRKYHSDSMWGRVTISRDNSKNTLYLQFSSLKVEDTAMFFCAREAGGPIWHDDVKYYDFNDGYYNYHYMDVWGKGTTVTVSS
1443_C16 (PG16) (TCN-116) (antibody), sequence (VL): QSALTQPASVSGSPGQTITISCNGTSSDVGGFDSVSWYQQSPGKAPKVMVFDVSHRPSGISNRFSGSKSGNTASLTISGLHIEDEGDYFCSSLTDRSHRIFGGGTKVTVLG

Substance: 4858_P08 (PGT-123) (antibody)
- Fold IC50 increase relative to wild-type [1]: 14.5 fold
- Fold IC50 increase relative to wild-type [2]: 0.3 fold

Substance: 1496_C09 (PG9) (TCN-109) (antibody)
- IC50, single-round pseudovirus neutralization [3]: 1.05 µg/mL
- IC50 (µg/mL), pseudovirus neutralization [4]: 1.86 µg/mL
- IC50 (µg/mL), pseudovirus neutralization [5]: 40.6 µg/mL
- IC50 (µg/mL), pseudovirus neutralization [6]: 37.9 µg/mL
- IC50, single-round pseudovirus neutralization [7]: 34.8 µg/mL
- IC50, single-round pseudovirus neutralization [8]: 0.181 µg/mL
- IC50, single-round pseudovirus neutralization [9]: 19.3 µg/mL
- IC50 (µg/mL), pseudovirus neutralization [10]: 0.614 µg/mL
- IC50 (µg/mL), pseudovirus neutralization [11]: 0.033 µg/mL
- IC50 (µg/mL), pseudovirus neutralization [12]: 0.06 µg/mL
- IC50 (µg/mL), pseudovirus neutralization [13]: 1.8 µg/mL
- IC50 (µg/mL), pseudovirus neutralization [14]: 16.2 µg/mL
- IC50 (µg/mL), pseudovirus neutralization [15]: 0.021 µg/mL
- IC50 (µg/mL), pseudovirus neutralization [16]: 0.023 µg/mL
- IC50 (µg/mL), pseudovirus neutralization [17]: 0.038 µg/mL
- IC50 (µg/mL), pseudovirus neutralization [18]: 23.7 µg/mL
- IC50 (µg/mL), pseudovirus neutralization [19]: 0.033 µg/mL
- IC50 (µg/mL), pseudovirus neutralization [20]: 1.25 µg/mL
- IC50 (µg/mL), single-round pseudovirus neutralization [21]: 5.36 µg/mL
- IC50 (µg/mL), single-round pseudovirus neutralization [22]: 0.067 µg/mL
- IC50, single-round pseudovirus neutralization [23]: 0.533 µg/mL
- IC50, single-round pseudovirus neutralization [24]: 0.688 µg/mL
- IC50, single-round pseudovirus neutralization [25]: 0.216 µg/mL
- IC50 (µg/mL), pseudovirus neutralization [26]: 0.175 µg/mL
- IC50 (µg/mL), pseudovirus neutralization [27]: 7.25 µg/mL
- IC50 (µg/mL), pseudovirus neutralization [28]: 0.012 µg/mL
- IC50 (µg/mL), pseudovirus neutralization [29]: 0.023 µg/mL
- IC50 (µg/mL), pseudovirus neutralization [30]: 1.25 µg/mL
- IC50 [31]: 3.6 µg/mL
- IC50 [32]: 0.141 µg/mL
- IC50 [33]: 0.164 µg/mL
- IC50 [34]: 1.94 µg/mL
- IC50 [35]: 0.75 µg/mL
- IC50 [36]: 1.06 µg/mL

Substance: 5114_A19 (PGT-128) (antibody)
- Fold IC50 increase relative to wild-type [37]: 1.6 fold

Substance: 1495_C14 (PGC14) (antibody)
- IC50, Neutralizing Antibody Assay, Virus/Ab Incubation 1 hour [38]: 1.17 µg/mL
- IC50, Neutralizing Antibody Assay, Virus/Ab Incubation 18 hour [38]: 0.244 µg/mL
- IC50, Neutralizing Antibody Assay, Virus/Ab Incubation 1 hour [39]: 0.0069 µg/mL
- IC50, Neutralizing Antibody Assay, Virus/Ab Incubation 18 hour [39]: < 0.0025 µg/mL

Substance: 2G12 (antibody)
- IC90 (neutralization of pseudovirus) [40]: > 50 µg/mL

Substance: 5141_B17 (PGT-126) (antibody)
- Neutralization IC80 [41]: 0.102 µg/mL
- Neutralization IC90 [41]: 0.238 µg/mL
- Neutralization IC95 [41]: 0.577 µg/mL
- neutralization IC50 [41]: 0.0256 µg/mL

Substance: 5343_B08 (PGT-135) (antibody)
- Fold IC50 increase relative to wild-type [42]: 2.5 fold
- Fold IC50 increase relative to wild-type [43]: 0.6 fold
- Fold IC50 increase relative to wild-type [2]: > 30 fold

Substance: 5145_B14 (PGT-127) (antibody)
- Fold IC50 increase relative to wild-type [37]: 3.5 fold

Substance: PGV04 (antibody)
- IC50, single-round pseudovirus neutralization [3]: 0.757 µg/mL
- IC50 (µg/mL), pseudovirus neutralization [4]: 22.4 µg/mL
- IC50 (µg/mL), pseudovirus neutralization [5]: 0.461 µg/mL
- IC50 (µg/mL), pseudovirus neutralization [6]: 2.98 µg/mL
- IC50, single-round pseudovirus neutralization [7]: 0.309 µg/mL
- IC50, single-round pseudovirus neutralization [8]: 24.2 µg/mL
- IC50, single-round pseudovirus neutralization [9]: 2.26 µg/mL
- IC50 (µg/mL), pseudovirus neutralization [10]: 0.128 µg/mL
- IC50 (µg/mL), pseudovirus neutralization [11]: > 50 µg/mL
- IC50 (µg/mL), pseudovirus neutralization [12]: 43.2 µg/mL
- IC50 (µg/mL), pseudovirus neutralization [13]: > 50 µg/mL
- IC50 (µg/mL), pseudovirus neutralization [14]: 0.125 µg/mL
- IC50 (µg/mL), pseudovirus neutralization [15]: 0.088 µg/mL
- IC50 (µg/mL), pseudovirus neutralization [16]: 0.194 µg/mL
- IC50 (µg/mL), pseudovirus neutralization [17]: > 50 µg/mL
- IC50 (µg/mL), pseudovirus neutralization [18]: 1.76 µg/mL
- IC50 (µg/mL), pseudovirus neutralization [19]: 0.09 µg/mL
- IC50 (µg/mL), pseudovirus neutralization [20]: 0.172 µg/mL
- IC50 (µg/mL), single-round pseudovirus neutralization [21]: 2.76 µg/mL
- IC50 (µg/mL), single-round pseudovirus neutralization [22]: 0.149 µg/mL
- IC50, single-round pseudovirus neutralization [23]: 0.047 µg/mL
- IC50, single-round pseudovirus neutralization [24]: 0.129 µg/mL
- IC50, single-round pseudovirus neutralization [25]: 0.164 µg/mL
- IC50 (µg/mL), pseudovirus neutralization [26]: 0.58 µg/mL
- IC50 (µg/mL), pseudovirus neutralization [27]: > 50 µg/mL
- IC50 (µg/mL), pseudovirus neutralization [28]: 0.184 µg/mL
- IC50 (µg/mL), pseudovirus neutralization [29]: 0.25 µg/mL
- IC50 (µg/mL), pseudovirus neutralization [30]: 0.084 µg/mL
- IC50 [31]: 4.46 µg/mL
- IC50 [32]: 0.055 µg/mL
- IC50 [33]: 0.14 µg/mL
- IC50 [41]: 0.083 µg/mL
- IC50 [34]: 0.128 µg/mL
- IC50 [35]: 0.134 µg/mL
- IC50 [36]: 7.21 µg/mL

Substance: 1443_C16 (PG16) (TCN-116) (antibody)
- IC50, Neutralizing Antibody Assay, Virus/Ab Incubation 1 hour [38]: > 50 µg/mL
- IC50, Neutralizing Antibody Assay, Virus/Ab Incubation 18 hour [38]: > 50 µg/mL
- IC90 (neutralization of pseudovirus) [40]: > 50 µg/mL
- IC50, Neutralizing Antibody Assay, Virus/Ab Incubation 1 hour [39]: > 50 µg/mL
- IC50, Neutralizing Antibody Assay, Virus/Ab Incubation 18 hour [39]: > 50 µg/mL

Substance: 5147_N06 (PGT-130) (antibody)
- Fold IC50 increase relative to wild-type [1]: > 50 fold
- Fold IC50 increase relative to wild-type [43]: 0.7 fold

Substance: 5136_H01 (PGT-131) (antibody)
- Fold IC50 increase relative to wild-type [42]: 0.8 fold
